{"source": "paper PMC6610143", "about": "(Nature Communications, 2019)", "binders": {"B1": {"name": "purified recombinant HA frankenbody fused to GFP (from pET23b-FB-GFP) (scFv, V domains shown)", "VH": "EVKLVESGGGLVKPGGSLKLSCAASGFTFSSYGMSWVRQTPEKRLEWVATISRGGSYTYYPDSVKGRFTISRDNAKNTLYLQMSSLRSEDTAIYYCARRETYDEKGFAYWGQGTTLTVSS", "VL": "DIVLTQSPASLTVSLGQRATISCKSSQSLLNSGNQKNYLTWYQQKPGQPPKLLIYWASTRESGIPARFSGSGSGTDFTLNIHPVEEEDAATYYCQNDNSHPLTFGAGTKLEI", "notes": "also called purified FB-GFP; purified frankenbody; source: E. coli BL21 (DE3) pLysS, purified (HisTrap HP, Superdex 200)"}, "B2": {"name": "HA frankenbody fused to mEGFP (χ15F11^HA) (scFv, V domains shown)", "VH": "EVKLVESGGGLVKPGGSLKLSCAASGFTFSSYGMSWVRQTPEKRLEWVATISRGGSYTYYPDSVKGRFTISRDNAKNTLYLQMSSLRSEDTAIYYCARRETYDEKGFAYWGQGTTLTVSS", "VL": "DIVLTQSPASLTVSLGQRATISCKSSQSLLNSGNQKNYLTWYQQKPGQPPKLLIYWASTRESGIPARFSGSGSGTDFTLNIHPVEEEDAATYYCQNDNSHPLTFGAGTKLEI", "notes": "also called FB-GFP; FB"}}, "key": {"[1]": {"biological_target": "T1, biotin-labeled HA peptide (HA epitope peptide (influenza A virus …, also: biotin label, position not given here))", "T1 chain": "YPYDVPDYA", "assay": "SPR", "settings": "both partners purified"}, "[2]": {"biological_target": "T2, mitoNEET (Mito) fused to mCherry and 1 × HA (synthetic HA epitope tag (influenza A …, UniProt P03437))", "T2 chain": "YPYDVPDYA", "settings": "partners not purified"}, "[3]": {"biological_target": "T3, mitoNEET (Mito) fused to mCherry and the spaghetti monster HA tag (synthetic HA epitope tag (influenza A …))", "T3 construct": "also called Mito-mCh-smHA; smHA-tagged Mito; source: U2OS, transfected, in living cells; not shown: mCherry, internal (between Mito and smHA), kept", "T3 chain": "YPYDVPDYA", "assay": "co-localisation of the fluorescent scFv with its tagged target in living cells", "settings": "partners not purified"}}, "note": "No end group written: not given here."}
{"binder": "B1", "values": [{"measurement": "Kd", "setting": "[1]", "result": "14.7 ± 7.4", "unit": "nM"}]}
{"binder": "B2", "values": [{"measurement": "Mito/Bg (mitochondria to background fluorescent intensity ratio)", "setting": "[2]", "result": 3.5}, {"measurement": "Mito/Bg (mitochondria to background fluorescent intensity ratio)", "setting": "[3]", "result": 16.6}]}
